Laboratory results taken from patent US12246066 (AGENUS, dated 2025).

B1: AGEN1884.H3 (IgG1 L235V/F243L/R292P/Y300L/P396L) (antibody)
heavy: EVQLVESGGGLVKPGGSLRLSCAASGFTFSSYSMNWVRQAPGKGLEWVSSISSSSSYIYYAESVKGRFTISRDNAKNSLYLQMNSLRAEDTAVYYCARVGLFGPFDIWGQGTLVTVSSASTKGPSVFPLAPSSKSTSGGTAALGCLVKDYFPEPVTVSWNSGALTSGVHTFPAVLQSSGLYSLSSVVTVPSSSLGTQTYICNVNHKPSNTKVDKRVEPKSCDKTHTCPPCPAPELVGGPSVFLLPPKPKDTLMISRTPEVTCVVVDVSHEDPEVKFNWYVDGVEVHNAKTKPPEEQYNSTLRVVSVLTVLHQDWLNGKEYKCKVSNKALPAPIEKTISKAKGQPREPQVYTLPPSREEMTKNQVSLTCLVKGFYPSDIAVEWESNGQPENNYKTTPLVLDSDGSFFLYSKLTVDKSRWQQGNVFSCSVMHEALHNHYTQKSLSLSPG
light: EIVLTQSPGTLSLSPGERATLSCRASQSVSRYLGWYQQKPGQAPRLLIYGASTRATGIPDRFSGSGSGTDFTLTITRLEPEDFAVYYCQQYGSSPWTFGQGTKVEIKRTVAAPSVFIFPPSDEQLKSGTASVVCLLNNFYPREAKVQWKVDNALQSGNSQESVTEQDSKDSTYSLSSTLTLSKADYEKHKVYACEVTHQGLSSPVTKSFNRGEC
B2: AGEN1884.H3 (IgG1 S239D/A330L/I332E) (antibody)
heavy: EVQLVESGGGLVKPGGSLRLSCAASGFTFSSYSMNWVRQAPGKGLEWVSSISSSSSYIYYAESVKGRFTISRDNAKNSLYLQMNSLRAEDTAVYYCARVGLFGPFDIWGQGTLVTVSSASTKGPSVFPLAPSSKSTSGGTAALGCLVKDYFPEPVTVSWNSGALTSGVHTFPAVLQSSGLYSLSSVVTVPSSSLGTQTYICNVNHKPSNTKVDKRVEPKSCDKTHTCPPCPAPELLGGPDVFLFPPKPKDTLMISRTPEVTCVVVDVSHEDPEVKFNWYVDGVEVHNAKTKPREEQYNSTYRVVSVLTVLHQDWLNGKEYKCKVSNKALPLPEEKTISKAKGQPREPQVYTLPPSREEMTKNQVSLTCLVKGFYPSDIAVEWESNGQPENNYKTTPPVLDSDGSFFLYSKLTVDKSRWQQGNVFSCSVMHEALHNHYTQKSLSLSPG
light: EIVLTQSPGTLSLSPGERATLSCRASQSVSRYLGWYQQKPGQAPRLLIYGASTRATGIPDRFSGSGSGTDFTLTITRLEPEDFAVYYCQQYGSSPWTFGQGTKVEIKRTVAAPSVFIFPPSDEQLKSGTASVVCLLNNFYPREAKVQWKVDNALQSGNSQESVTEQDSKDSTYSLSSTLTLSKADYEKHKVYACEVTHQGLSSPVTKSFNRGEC
notes: Section 7.2.2 prints 'A330E'; also called AGEN1884.H3 (IgG1-S239D/A330E/I332E) as printed in section 7.2.2
B3: AGEN1884.H1.1 (IgG1) (antibody, V domains shown)
VH: EVQLVESGGGLVKPGGSLRLSCAASGFTFSSYSMNWVRQAPGKGLEWVSSISSSSSYIYYADSVKGRFTISRDNAKNSLYLQMNSLRAEDTAVYYCARVGLFGPFDIWGQGTMVTVSS
VL: EIVLTQSPGTLSLSPGERATLSCRASQSVSRYLGWYQQKPGQAPRLLIYGASTRATGIPDRFSGSGSGTDFTLTITRLEPEDFAVYYCQQYGSSPWTFGQGTKVEIK
B4: AGEN1884.H2.3 (IgG1) (antibody, V domains shown)
VH: EVQLVESGGGLVKPGGSLRLSCAASGFTFSSYSMNWVRQAPGKGLEWVSSISSSSSYIYYAESVKGRFTISRDNAKNSLYLQMNSLRAEDTAVYYCARVGLMGPFDIWGQGTLVTVSS
VL: EIVLTQSPGTLSLSPGERATLSCRASQSVSRYLGWYQQKPGQAPRLLIYGASTRATGIPDRFSGSGSGTDFTLTITRLEPEDFAVYYCQQYGSSPWTFGQGTKVEIK
B5: AGEN1884.H1.3 (IgG1) (antibody, V domains shown)
VH: EVQLVESGGGLVKPGGSLRLSCAASGFTFSSYSMNWVRQAPGKGLEWVSSISSSSSYIYYAESVKGRFTISRDNAKNSLYLQMNSLRAEDTAVYYCARVGLMGPFDIWGQGTMVTVSS
VL: EIVLTQSPGTLSLSPGERATLSCRASQSVSRYLGWYQQKPGQAPRLLIYGASTRATGIPDRFSGSGSGTDFTLTITRLEPEDFAVYYCQQYGSSPWTFGQGTKVEIK
B6: AGEN1884.H2.1 (IgG1) (antibody, V domains shown)
VH: EVQLVESGGGLVKPGGSLRLSCAASGFTFSSYSMNWVRQAPGKGLEWVSSISSSSSYIYYADSVKGRFTISRDNAKNSLYLQMNSLRAEDTAVYYCARVGLFGPFDIWGQGTLVTVSS
VL: EIVLTQSPGTLSLSPGERATLSCRASQSVSRYLGWYQQKPGQAPRLLIYGASTRATGIPDRFSGSGSGTDFTLTITRLEPEDFAVYYCQQYGSSPWTFGQGTKVEIK
B7: AGEN1884.H2.2 (IgG1) (antibody, V domains shown)
VH: EVQLVESGGGLVKPGGSLRLSCAASGFTFSSYSMNWVRQAPGKGLEWVSSISSSSSYIYYAESVKGRFTISRDNAKNSLYLQMNSLRAEDTAVYYCARVGLFGPFDIWGQGTMVTVSS
VL: EIVLTQSPGTLSLSPGERATLSCRASQSVSRYLGWYQQKPGQAPRLLIYGASTRATGIPDRFSGSGSGTDFTLTITRLEPEDFAVYYCQQYGSSPWTFGQGTKVEIK
B8: AGEN1884.H1.2 (IgG1) (antibody, V domains shown)
VH: EVQLVESGGGLVKPGGSLRLSCAASGFTFSSYSMNWVRQAPGKGLEWVSSISSSSSYIYYADSVKGRFTISRDNAKNSLYLQMNSLRAEDTAVYYCARVGLMGPFDIWGQGTLVTVSS
VL: EIVLTQSPGTLSLSPGERATLSCRASQSVSRYLGWYQQKPGQAPRLLIYGASTRATGIPDRFSGSGSGTDFTLTITRLEPEDFAVYYCQQYGSSPWTFGQGTKVEIK

These binders were tested against T1, human CTLA-4 on Jurkat cells engineered to constitutively express human CTLA-4 (Promega) (human, UniProt P16410 36-223) (assay: flow cytometry, 5 µg/ml antibody on Jurkat cells expressing human CTLA-4).
T1 construct: Bought cell line; also called CTLA-4-expressing cells; cells expressing human CTLA-4
Description: The binding of anti-CTLA-4 antibodies AGEN1884.H3 (IgG_1 S239D/I332E), AGEN1884.H3 (IgG_1 S239D/A330L/I332E), and AGEN1884.H3 (IgG_1L235V/F243L/R292P/Y300L/P396L) to CTLA-4-expressing cells was characterized similarly as described above. Briefly, Jurkat cells engineered to express human CTLA-4 (Promega) were stained first with 5 μg/ml of an anti-CTLA-4 antibody or an isotype control antibody and then with an anti-human IgG secondary antibody (Thermo Scientific, Cat #31529). The cells were analyzed using BD FACS Canto II.

Binding result, binds:
B1, B2

These binders were tested against T1, human CTLA-4 on Jurkat cells engineered … (assay: flow cytometry, 2 µg/ml antibody on Jurkat cells expressing human CTLA-4).
Description: Jurkat cells engineered to constitutively express human CTLA-4 (Promega) were used to analyze the binding of anti-CTLA-4 antibodies. Briefly, the cells were stained at 5 ×10^5 cells/well using 2 µg/ml of antibody in a 96-well plate for 30 minutes at 4° C. The cells were washed twice and incubated for 20 minutes at 4° C. with an anti-human IgG secondary antibody (Thermo Scientific, Cat #31529). The cells were washed and suspended in […] of 2% paraformaldehyde (Alfa Aesar, Cat #43368) prepared in PBS. Data were collected with BD FACS Canto II.

Binding result, binds:
B3, B4, B5, B6, B7, B8
